This passage reports Kd results from paper PMC2946844.

As usually defined, the Kd is the constant that tells how readily two partners part at equilibrium. A low value points to a tighter complex.

This data set deals with T1, 1xMBD-GFP (UniProt Q9Z2E2 1-75).
T1 sequence: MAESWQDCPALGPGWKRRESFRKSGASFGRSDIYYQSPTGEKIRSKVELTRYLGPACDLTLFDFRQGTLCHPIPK
Description: SPR. Background: Surface plasmon resonance follows binding to a sensor surface in real time, without labels.

B1: o_o_o/m_m_m (dsDNA)
DNA 1: TTTGCGGTCCGCTGCCCGACCC
DNA 2: GGGTCGGGCAGCGGACCGCAAA
modifications: strand 2 5mC5,5mC12,5mC17
B1 came in with a dissociation constant (Kd) of 4.6 ± 0.2 µM.

B2: o_m_o/o_m_m (dsDNA)
DNA 1: TTTGCGGTCCGCTGCCCGACCC
DNA 2: GGGTCGGGCAGCGGACCGCAAA
modifications: strand 1 5mC10; strand 2 5mC5,5mC12
Consider B2, for which the Kd was 0.252 ± 0.002 µM.

B3: o_o_o/o_m_o (dsDNA)
DNA 1: TTTGCGGTCCGCTGCCCGACCC
DNA 2: GGGTCGGGCAGCGGACCGCAAA
modifications: strand 2 5mC12
Consider B3, for which binding was characterised by a dissociation constant (Kd) of 12 ± 1 µM.

B4: m_o_o*/o_m_m (dsDNA)
DNA 1: GTAGTTTGCGGTCCGCTGCCCGACC
DNA 2: GGGTCGGGCAGCGGACCGCAAA
modifications: strand 1 5mC9; strand 2 5mC5,5mC12
The molecule B4 returned a Kd of 3.74 ± 0.06 µM.

B5: o_o_o/m_o_m (dsDNA)
DNA 1: TTTGCGGTCCGCTGCCCGACCC
DNA 2: GGGTCGGGCAGCGGACCGCAAA
modifications: strand 2 5mC5,5mC17
B5 registered a Kd of 5.7 ± 0.3 µM.

B6: o_m_o/o_m_o (dsDNA)
DNA 1: TTTGCGGTCCGCTGCCCGACCC
DNA 2: GGGTCGGGCAGCGGACCGCAAA
modifications: strand 1 5mC10; strand 2 5mC12
B6 displayed a Kd of 0.244 ± 0.002 µM.

B7: m_o_o*/o_m_o (dsDNA)
DNA 1: GTAGTTTGCGGTCCGCTGCCCGACC
DNA 2: GGGTCGGGCAGCGGACCGCAAA
modifications: strand 1 5mC9; strand 2 5mC12
B7 had a Kd of 5.41 ± 0.05 µM.

B8: o_m_m/m_m_m (dsDNA)
DNA 1: TTTGCGGTCCGCTGCCCGACCC
DNA 2: GGGTCGGGCAGCGGACCGCAAA
modifications: strand 1 5mC10,5mC17; strand 2 5mC5,5mC12,5mC17
Turning to B8, the affinity, expressed as Kd, was 0.181 ± 0.001 µM.

B9: o_m_m/o_o_o (dsDNA)
DNA 1: TTTGCGGTCCGCTGCCCGACCC
DNA 2: GGGTCGGGCAGCGGACCGCAAA
modifications: strand 1 5mC10,5mC17
On to B9, for which binding was characterised by a dissociation constant (Kd) of 3.09 ± 0.02 µM.

B10: o_m_m/m_o_m (dsDNA)
DNA 1: TTTGCGGTCCGCTGCCCGACCC
DNA 2: GGGTCGGGCAGCGGACCGCAAA
modifications: strand 1 5mC10,5mC17; strand 2 5mC5,5mC17
B10 yielded a Kd of 0.169 ± 0.002 µM.

B11: o_m_o/m_m_m (dsDNA)
DNA 1: TTTGCGGTCCGCTGCCCGACCC
DNA 2: GGGTCGGGCAGCGGACCGCAAA
modifications: strand 1 5mC10; strand 2 5mC5,5mC12,5mC17
As for B11, binding was characterised by a dissociation constant (Kd) of 0.398 ± 0.002 µM.

B12: o_m_m/o_m_m (dsDNA)
DNA 1: TTTGCGGTCCGCTGCCCGACCC
DNA 2: GGGTCGGGCAGCGGACCGCAAA
modifications: strand 1 5mC10,5mC17; strand 2 5mC5,5mC12
Take B12: binding was put at a Kd of 0.139 ± 0.007 µM.

B13: m_o_o*/o_o_o (dsDNA)
DNA 1: GTAGTTTGCGGTCCGCTGCCCGACC
DNA 2: GGGTCGGGCAGCGGACCGCAAA
modifications: strand 1 5mC9
Consider B13, for which the affinity, expressed as Kd, was 13.1 ± 0.3 µM.

B14: m_o_o/m_m_m (dsDNA)
DNA 1: TTTGCGGTCCGCTGCCCGACCC
DNA 2: GGGTCGGGCAGCGGACCGCAAA
modifications: strand 1 5mC5; strand 2 5mC5,5mC12,5mC17
Consider B14, for which binding was characterised by a dissociation constant (Kd) of 2.2 ± 0.02 µM.

B15: m_o_o*/m_m_m (dsDNA)
DNA 1: GTAGTTTGCGGTCCGCTGCCCGACC
DNA 2: GGGTCGGGCAGCGGACCGCAAA
modifications: strand 1 5mC9; strand 2 5mC5,5mC12,5mC17
B15 yielded a Kd of 0.534 ± 0.004 µM.

B16: m_o_o/o_m_o (dsDNA)
DNA 1: TTTGCGGTCCGCTGCCCGACCC
DNA 2: GGGTCGGGCAGCGGACCGCAAA
modifications: strand 1 5mC5; strand 2 5mC12
In turn, B16 registered an equilibrium dissociation constant (Kd) of 5.5 ± 0.9 µM.

B17: o_o_m/m_o_o (dsDNA)
DNA 1: TTTGCGGTCCGCTGCCCGACCC
DNA 2: GGGTCGGGCAGCGGACCGCAAA
modifications: strand 1 5mC17; strand 2 5mC17
As to B17, the Kd was determined as 5.97 ± 0.08 µM.

B18: o_o_o/o_m_m (dsDNA)
DNA 1: TTTGCGGTCCGCTGCCCGACCC
DNA 2: GGGTCGGGCAGCGGACCGCAAA
modifications: strand 2 5mC5,5mC12
B18: the affinity, expressed as Kd, was 4.28 ± 0.05 µM.

B19: o_m_m/o_m_o (dsDNA)
DNA 1: TTTGCGGTCCGCTGCCCGACCC
DNA 2: GGGTCGGGCAGCGGACCGCAAA
modifications: strand 1 5mC10,5mC17; strand 2 5mC12
As to B19, binding was put at a Kd of 0.271 ± 0.005 µM.

B20: o_o_m/o_o_o (dsDNA)
DNA 1: TTTGCGGTCCGCTGCCCGACCC
DNA 2: GGGTCGGGCAGCGGACCGCAAA
modifications: strand 1 5mC17
In the case of B20, the affinity, expressed as Kd, was 6.8 ± 0.1 µM.

B21: m_o_o/o_m_m (dsDNA)
DNA 1: TTTGCGGTCCGCTGCCCGACCC
DNA 2: GGGTCGGGCAGCGGACCGCAAA
modifications: strand 1 5mC5; strand 2 5mC5,5mC12
Molecule B21 registered a Kd of 3.67 ± 0.03 µM.

B22: o_o_m/o_m_m (dsDNA)
DNA 1: TTTGCGGTCCGCTGCCCGACCC
DNA 2: GGGTCGGGCAGCGGACCGCAAA
modifications: strand 1 5mC17; strand 2 5mC5,5mC12
B22 returned a Kd of 0.116 ± 0.001 µM.

B23: m_o_o/o_o_o (dsDNA)
DNA 1: TTTGCGGTCCGCTGCCCGACCC
DNA 2: GGGTCGGGCAGCGGACCGCAAA
modifications: strand 1 5mC5
Molecule B23 gave a dissociation constant Kd of 35 ± 1 µM.

B24: o_m_m/m_o_o (dsDNA)
DNA 1: TTTGCGGTCCGCTGCCCGACCC
DNA 2: GGGTCGGGCAGCGGACCGCAAA
modifications: strand 1 5mC10,5mC17; strand 2 5mC17
As to B24, the Kd is 3.47 ± 0.05 µM.

B25: o_m_o/m_o_m (dsDNA)
DNA 1: TTTGCGGTCCGCTGCCCGACCC
DNA 2: GGGTCGGGCAGCGGACCGCAAA
modifications: strand 1 5mC10; strand 2 5mC5,5mC17
Take B25: the Kd stood at 8.6 ± 0.1 µM.

B26: m_o_o*/m_o_m (dsDNA)
DNA 1: GTAGTTTGCGGTCCGCTGCCCGACC
DNA 2: GGGTCGGGCAGCGGACCGCAAA
modifications: strand 1 5mC9; strand 2 5mC5,5mC17
In turn, B26 registered an equilibrium dissociation constant (Kd) of 0.564 ± 0.004 µM.

B27: o_o_o/o_o_o (dsDNA)
DNA 1: TTTGCGGTCCGCTGCCCGACCC
DNA 2: GGGTCGGGCAGCGGACCGCAAA
As to B27, the Kd is 72 ± 5 µM.

B28: o_m_o/o_o_o (dsDNA)
DNA 1: TTTGCGGTCCGCTGCCCGACCC
DNA 2: GGGTCGGGCAGCGGACCGCAAA
modifications: strand 1 5mC10
In turn, B28 showed a Kd of 10 ± 0.1 µM.

B29: o_o_m/o_m_o (dsDNA)
DNA 1: TTTGCGGTCCGCTGCCCGACCC
DNA 2: GGGTCGGGCAGCGGACCGCAAA
modifications: strand 1 5mC17; strand 2 5mC12
Molecule B29 displayed an equilibrium dissociation constant (Kd) of 2.3 ± 0.06 µM.

B30: o_o_o_o/o_o_o_o (dsDNA)
DNA 1: GAAGTCAACAGGACGGACGCCGCGCAA
DNA 2: CTCTTTCTTTGCGCGGCGTCCGTCCTGTTGACTTCCTCT
Molecule B30 registered a dissociation constant (Kd) of 37 ± 2 µM.

B31: o_m_o_o/o_m_m_o (dsDNA)
DNA 1: GAAGTCAACAGGACGGACGCCGCGCAA
DNA 2: B30 DNA 2
modifications: strand 1 5mC18; strand 2 5mC14,5mC17
In the case of B31, the equilibrium dissociation constant (Kd) was determined as 0.315 ± 0.004 µM.

B32: m_o_o_o/o_o_o_o (dsDNA)
DNA 1: GAAGTCAACAGGACGGACGCCGCGCAA
DNA 2: B30 DNA 2
modifications: strand 1 5mC14
Consider B32, for which the Kd was found to be 16.8 ± 0.5 µM.

B33: o_o_m_o/o_o_o_o (dsDNA)
DNA 1: GAAGTCAACAGGACGGACGCCGCGCAA
DNA 2: B30 DNA 2
modifications: strand 1 5mC21
On to B33, for which the Kd was determined as 5.86 ± 0.09 µM.

B34: o_o_o_m/o_o_m_o (dsDNA)
DNA 1: GAAGTCAACAGGACGGACGCCGCGCAA
DNA 2: B30 DNA 2
modifications: strand 1 5mC23; strand 2 5mC14
Consider B34, for which binding was characterised by a dissociation constant (Kd) of 2.65 ± 0.03 µM.

B35: o_o_o_o/o_m_m_o (dsDNA)
DNA 1: GAAGTCAACAGGACGGACGCCGCGCAA
DNA 2: B30 DNA 2
modifications: strand 2 5mC14,5mC17
Consider B35, for which the Kd stood at 3.19 ± 0.03 µM.

B36: o_o_o_o/o_o_m_o (dsDNA)
DNA 1: GAAGTCAACAGGACGGACGCCGCGCAA
DNA 2: B30 DNA 2
modifications: strand 2 5mC14
B36: the Kd is 3.66 ± 0.05 µM.

B37: o_m_o_o/o_o_m_o (dsDNA)
DNA 1: GAAGTCAACAGGACGGACGCCGCGCAA
DNA 2: B30 DNA 2
modifications: strand 1 5mC18; strand 2 5mC14
Regarding B37, the equilibrium dissociation constant (Kd) is 3.12 ± 0.04 µM.

B38: m_o_o_o/o_m_m_o (dsDNA)
DNA 1: GAAGTCAACAGGACGGACGCCGCGCAA
DNA 2: B30 DNA 2
modifications: strand 1 5mC14; strand 2 5mC14,5mC17
On to B38, for which the dissociation constant (Kd) came to 2.4 ± 0.09 µM.

B39: o_m_o_o/o_o_m_m (dsDNA)
DNA 1: GAAGTCAACAGGACGGACGCCGCGCAA
DNA 2: B30 DNA 2
modifications: strand 1 5mC18; strand 2 5mC12,5mC14
B39: the affinity, expressed as Kd, was 2.4 ± 0.04 µM.

B40: o_o_o_o/o_o_m_m (dsDNA)
DNA 1: GAAGTCAACAGGACGGACGCCGCGCAA
DNA 2: B30 DNA 2
modifications: strand 2 5mC12,5mC14
The molecule B40 returned an equilibrium dissociation constant (Kd) of 4.5 ± 0.1 µM.

B41: m_o_o_o/o_o_m_o (dsDNA)
DNA 1: GAAGTCAACAGGACGGACGCCGCGCAA
DNA 2: B30 DNA 2
modifications: strand 1 5mC14; strand 2 5mC14
Molecule B41 had an equilibrium dissociation constant (Kd) of 3.51 ± 0.03 µM.

B42: o_m_o_o/o_o_o_o (dsDNA)
DNA 1: GAAGTCAACAGGACGGACGCCGCGCAA
DNA 2: B30 DNA 2
modifications: strand 1 5mC18
Regarding B42, binding was put at a Kd of 14.7 ± 0.4 µM.

B43: o_o_m_o/o_m_m_o (dsDNA)
DNA 1: GAAGTCAACAGGACGGACGCCGCGCAA
DNA 2: B30 DNA 2
modifications: strand 1 5mC21; strand 2 5mC14,5mC17
In the case of B43, binding was characterised by a dissociation constant (Kd) of 0.158 ± 0.003 µM.

B44: m_o_o_o/o_o_m_m (dsDNA)
DNA 1: GAAGTCAACAGGACGGACGCCGCGCAA
DNA 2: B30 DNA 2
modifications: strand 1 5mC14; strand 2 5mC12,5mC14
In turn, B44 returned a Kd of 3.11 ± 0.03 µM.

B45: o_o_o_m/o_m_m_o (dsDNA)
DNA 1: GAAGTCAACAGGACGGACGCCGCGCAA
DNA 2: B30 DNA 2
modifications: strand 1 5mC23; strand 2 5mC14,5mC17
Consider B45, for which the dissociation constant (Kd) was found to be 1.94 ± 0.02 µM.

B46: o_o_m_o/o_o_m_o (dsDNA)
DNA 1: GAAGTCAACAGGACGGACGCCGCGCAA
DNA 2: B30 DNA 2
modifications: strand 1 5mC21; strand 2 5mC14
B46 yielded an equilibrium dissociation constant (Kd) of 0.106 ± 0.001 µM.

B47: o_o_o_m/o_o_o_o (dsDNA)
DNA 1: GAAGTCAACAGGACGGACGCCGCGCAA
DNA 2: B30 DNA 2
modifications: strand 1 5mC23
B47: the Kd is 7.6 ± 0.2 µM.

B48: m_o_o/m_o_m (dsDNA)
DNA 1: TTTGCGGTCCGCTGCCCGACCC
DNA 2: GGGTCGGGCAGCGGACCGCAAA
modifications: strand 1 5mC5; strand 2 5mC5,5mC17
B48 gave a Kd of 2.08 ± 0.02 µM.

B49: o_o_m/m_o_m (dsDNA)
DNA 1: TTTGCGGTCCGCTGCCCGACCC
DNA 2: GGGTCGGGCAGCGGACCGCAAA
modifications: strand 1 5mC17; strand 2 5mC5,5mC17
B49 registered a dissociation constant (Kd) of 0.179 ± 0.001 µM.
